Assay results from article PMC4602035.

Experiments:
[1] = molecular target: SecYEG in nanodiscs (titration with FtsY(NBD)) (E. coli) (UniProt P0AGA2); test: other fluorescence titration
[2] = molecular target: nontranslating ribosomes (E. coli) (UniProt P0ADZ0); test: co-sedimentation
[3] = molecular target: SecY(S111C)EG labeled with MDCC at position 111 of SecY (E. coli) (UniProt P0AGA2); test: FRET or BRET

## FtsY(A26C) labeled with NBD at position 26 (from UniProt P10121 1-497) (receptor)
[1]
  Kd: 160 nM

B1: SRP present in the ribosome and RNC preparations (complex)
chain: MFDNLTDRLSRTLRNISGRGRLTEDNVKDTLREVRMALLEADVALPVVREFINRVKEKAVGHEVNKSLTPGQEFVKIVRNELVAAMGEENQTLNLAAQPPAVVLMAGLQGAGKTTSVGKLGKFLREKHKKKVLVVSADVYRPAAIKQLETLAEQVGVDFFPSDVGQKPVDIVNAALKEAKLKFYDVLLVDTAGRLHVDEAMMDEIKQVHASINPVETLFVVDAMTGQDAANTAKAFNEALPLTGVVLTKVDGDARGGAALSIRHITGKPIKFLGVGEKTEALEPFHPDRIASRILGMGDVLSLIEDIESKVDRAQAEKLASKLKKGDGFDLNDFLEQLRQMKNMGGMASLMGKLPGMGQIPDNVKSQMDDKVLVRMEAIINSMTMKERAKPEIIKGSRKRRIAAGCGMQVQDVNRLLKQFDDMQRMMKKMKKGGMAKMMRSMKGMMPPGFPGR
[2]
  percent of ribosomes/RNCs with SRP bound: 25%

B2: FtsY(F196C) labeled with BODIPY FL at position 196 (receptor)
chain: MAKEKKRGFFSWLGFGQKEQTPEKETEVQNEQPVVEEIVQAQEPVKASEQAVEEQPQAHTEAEAETFAADVVEVTEQVAESEKAQPEAEVVAQPEPVVEETPEPVAIEREELPLPEDVNAEAVSPEEWQAEAETVEIVEAAEEEAAKEEITDEELETALAAEAAEEAVMVVPPAEEEQPVEEIAQEQEKPTKEGFCARLKRSLLKTKENLGSGFISLFRGKKIDDDLFEELEEQLLIADVGVETTRKIITNLTEGASRKQLRDAEALYGLLKEEMGEILAKVDEPLNVEGKAPFVILMVGVNGVGKTTTIGKLARQFEQQGKSVMLAAGDTFRAAAVEQLQVWGQRNNIPVIAQHTGADSASVIFDAIQAAKARNIDVLIADTAGRLQNKSHLMEELKKIVRVMKKLDVEAPHEVMLTIDASTGQNAVSQAKLFHEAVGLTGITLTKLDGTAKGGVIFSVADQFGIPIRYIGVGERIEDLRPFKADDFIEALFARED
modifications: BODIPY FL (Bpy) on cysteine 196
[3]
  Kd: 180 nM
